According to patent publication US20100068208A1, “Degranulation inhibitor” (priority 2005, published 2010):
Where two headings read alike, the source gives them in different places. One block for each molecule: values may come before it. Where no end group is shown, it is not given here.

Tests used:
TGR12 = assay type: cell-based, human
Method: CHO/dhfr^− cells (hereinafter CHO) were incubated in α-MEM (Invitrogen) supplemented with 10% fetal calf serum. After a termination codon in the TGR12-encoding nucleotide sequence was removed, a nucleotide sequence ligated with the nucleotide sequence encoding GFP (Wako Pure Chemical) [hereinafter briefly referred to as TGR12-GFP (DNA having the nucleotide sequence represented by SEQ ID NO: 31)] was incorporated into vector plasmid pAKKO-111H (the same vector plasmid as pAKKO1.11H described in Biochim. Biophys. Acta, 1219, 251-259 (1994)) for animal cell expression, and the vector plasmid was stably expressed to establish TGR12-GFP-expressed CHO cell line (hereinafter CHO-TGR12). CHO-TGR12 was incubated in nucleic acid-free α-MEM medium (Invitrogen) containing 10% dialyzed fetal calf serum.
CHO-TGR12 was plated in a 96-well plate at a density of 30,000 cells/well. After incubation overnight, the medium was discarded and 100 μL/well of assay buffer [Hank's Balanced Salt Solution (Invitrogen), 20 mM HEPES (Dojin Chemical Laboratory) and 2.5 mM Probenecid (Sigma)] containing 4 μM Fluo3-AM (Dojin Chemical Laboratory) was added, which was then allowed to stand for an hour at 37° C. […] After the cells were washed with assay buffer, fluorescence reflecting changes in intracellular calcium levels was assayed on FLIPR (Molecular Device). Ten seconds after initiation of the assay, 50 μL of a sample was added at a rate of 50 μL/second. Fluorescence measurement was taken every 1 second during the first 60 seconds and then every 6 seconds during the next 120 seconds; the highest fluorescence intensity over a 3 minute period was taken as the maximum activity under the stimulation condition, representing the mean value of 3 wells. The EC50 values were determined using Graphpad PRISM 4 (Graphpad Software).

[1] = tested on: human mast cell line LAD 2; test: TGR12 ligand-dependent degranulation of LAD 2 (β-hexosaminidase release); assay type: cell-based
Method: Human mast cell line LAD 2 was incubated in StemPro-34 medium (Invitrogen) supplemented with 100 ng/mL of stem cell factor (Immuno-Biological Laboratories Co., Ltd.). […] Subsequently, Tyrode's buffer containing 50 μL of TGR12 ligand (Peptide Institute, Inc.) in various concentrations was added and incubation was continued at 37° C. for further 20 minutes to induce degranulation. The degree of degranulation was determined by assaying the β-hexosaminidase activity in the degranulation assay supernatant as given below. The supernatant was dispensed into a 96-well plate and 0.1M citrate (pH 4.5)/1 mM 4-methyl umbelliferyl-2-acetamido-2-deoxy-beta-D-glucopyranoside (Wako Pure Chemical) in 5-fold of the supernatant was added thereto, followed by incubation at 37° C. for an hour. […] The activity was then assayed using Fusion-α (Perkin-Elmer). The β-hexosaminidase activity was also shown by the activity in the supernatant obtained by centrifugation after freezing and thawing LAD 2 four times, which was made total β-hexosaminidase activity in LAD 2, and the degree of degranulation was shown as the percentage of the β-hexosaminidase activity in the LAD 2 supernatant based on the total β-hexosaminidase activity.

[2] = target: TGR12-GFP (fused protein of human TGR12 and GFP, encoded by the DNA of SEQ ID NO: 31), stably expressed on CHO cells (CHO-TGR12 of Example 1) (human) (UniProt Q96LB1); test: cell-based or functional assay
human TGR12 (untagged) = target: T1, human TGR12 (untagged) (human, UniProt Q96LB1 1-330); test: cell-based or functional assay
T1 sequence: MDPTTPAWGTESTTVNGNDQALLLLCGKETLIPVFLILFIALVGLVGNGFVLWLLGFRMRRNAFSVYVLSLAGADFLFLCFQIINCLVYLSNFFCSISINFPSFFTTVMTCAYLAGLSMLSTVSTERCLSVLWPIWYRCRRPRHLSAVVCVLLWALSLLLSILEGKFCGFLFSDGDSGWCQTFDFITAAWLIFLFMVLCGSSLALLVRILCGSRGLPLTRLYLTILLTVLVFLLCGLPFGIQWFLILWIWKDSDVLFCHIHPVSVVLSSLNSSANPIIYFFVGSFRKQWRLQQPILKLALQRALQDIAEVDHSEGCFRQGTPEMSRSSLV

[3] = target: T2, TGR12-GFP (fused protein of human TGR12 and GFP, encoded by the DNA of SEQ ID NO: 31), stably expressed on … (human, UniProt Q96LB1 1-330); test: cell-based or functional assay
T2 sequence: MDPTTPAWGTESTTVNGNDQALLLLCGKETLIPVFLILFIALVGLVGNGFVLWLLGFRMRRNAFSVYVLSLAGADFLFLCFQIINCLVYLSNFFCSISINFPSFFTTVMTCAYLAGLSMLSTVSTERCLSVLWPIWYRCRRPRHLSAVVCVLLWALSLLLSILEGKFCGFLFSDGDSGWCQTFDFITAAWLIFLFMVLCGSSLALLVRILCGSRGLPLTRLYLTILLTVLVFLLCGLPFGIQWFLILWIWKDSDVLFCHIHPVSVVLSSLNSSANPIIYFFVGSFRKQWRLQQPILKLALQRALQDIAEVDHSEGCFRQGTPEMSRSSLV

Molecule: CC[C@H](C)[C@H](NC(=O)CNC(=O)[C@H](CC(=O)O)NC(=O)[C@H](CO)NC(=O)[C@@H](N)Cc1c[nH]cn1)C(=O)N[C@@H](Cc1ccccc1)C(=O)N[C@H](C(=O)N[C@@H](CC(=O)O)C(=O)N[C@@H](CO)C(=O)N[C@@H](Cc1ccc(O)cc1)C(=O)N[C@@H](CO)C(=O)N[C@@H](CCCNC(=N)N)C(=O)N[C@@H](Cc1ccc(O)cc1)C(=O)N[C@@H](CCCNC(=N)N)C(=O)N[C@@H](CCCCN)C(=O)N[C@@H](CCC(N)=O)C(=O)N[C@@H](CCSC)C(=O)N[C@@H](C)C(=O)N[C@H](C(=O)N[C@@H](CCCCN)C(=O)N[C@@H](CCCCN)C(=O)N[C@@H](Cc1ccc(O)cc1)C(=O)N[C@@H](CC(C)C)C(=O)N[C@@H](C)C(=O)N[C@@H](C)C(=O)N[C@H](C(=O)N[C@@H](CC(C)C)C(=O)NCC(=O)N[C@@H](CCCCN)C(=O)N[C@@H](CCCNC(=N)N)C(=O)N[C@@H](Cc1ccc(O)cc1)C(=O)N[C@@H](CCCCN)C(=O)N[C@@H](CCC(N)=O)C(=O)N[C@@H](CCCNC(=N)N)C(=O)N[C@H](C(=O)N[C@@H](CCCCN)C(=O)N[C@@H](CC(N)=O)C(=O)N[C@@H](CCCCN)C(N)=O)C(C)C)C(C)C)C(C)C)[C@@H](C)O [PACAP-38]
maximum activity in the calcium increasing effect (TGR12; CHO-TGR12, 0.3 nM, highest fluorescence intensity over 3 minutes): 287
maximum activity in the calcium increasing effect (TGR12; CHO-TGR12, 3 nM): 410
maximum activity in the calcium increasing effect (TGR12; CHO-TGR12, 30 nM): 195
maximum activity in the calcium increasing effect (TGR12; CHO-TGR12, 300 nM): 23043
maximum activity in the calcium increasing effect (TGR12; CHO-TGR12, 3000 nM): 23315
EC50 (TGR12; CHO-TGR12, read-out: EC50 in the calcium increasing effect on CHO-TGR12): ~161 nM
stimulated degranulation (β-hexosaminidase in supernatant, % of total) ([1]; LAD 2, 10 nM): 7.4%
stimulated degranulation (β-hexosaminidase in supernatant, % of total) ([1]; LAD 2, 30 nM): 24.8%
stimulated degranulation (β-hexosaminidase in supernatant, % of total) ([1]; LAD 2, 100 nM): 49.4%
stimulated degranulation (β-hexosaminidase in supernatant, % of total) ([1]; LAD 2, 300 nM): 65.8%
stimulated degranulation (β-hexosaminidase in supernatant, % of total) ([1]; LAD 2, 1 μM): 68.9%
stimulated degranulation (β-hexosaminidase in supernatant, % of total) ([1]; LAD 2, 3 μM): 63.3%
EC50 ([1]; LAD 2, read-out: EC50 in the degranulation on LAD 2): ~51 nM

EC50 in the calcium increasing effect on CHO-TGR12 [2]: 98 nM
maximum activity in the calcium increasing effect (FLIPR), CHO-TGR12, at 0.3 nM (fluorescence intensity) [2]: 255
maximum activity in the calcium increasing effect (FLIPR), CHO-TGR12, at 3 nM (fluorescence intensity) [2]: 1620
maximum activity in the calcium increasing effect (FLIPR), CHO-TGR12, at 30 nM (fluorescence intensity) [2]: 22300
maximum activity in the calcium increasing effect (FLIPR), CHO-TGR12, at 300 nM (fluorescence intensity) [2]: 24100
maximum activity in the calcium increasing effect (FLIPR), CHO-TGR12, at 3000 nM (fluorescence intensity) [2]: 23700
EC50 in the degranulation on LAD 2 (human TGR12 (untagged)): 13 nM
degranulation of LAD 2 (beta-hexosaminidase release, % of total) at 3 nM (human TGR12 (untagged)): 6.3%
degranulation of LAD 2 (beta-hexosaminidase release, % of total) at 10 nM (human TGR12 (untagged)): 30.7%
degranulation of LAD 2 (beta-hexosaminidase release, % of total) at 30 nM (human TGR12 (untagged)): 52.1%
degranulation of LAD 2 (beta-hexosaminidase release, % of total) at 100 nM (human TGR12 (untagged)): 65.2%
degranulation of LAD 2 (beta-hexosaminidase release, % of total) at 300 nM (human TGR12 (untagged)): 67.7%
degranulation of LAD 2 (beta-hexosaminidase release, % of total) at 1 µM (human TGR12 (untagged)): 69.3%
maximum activity in the calcium increasing effect (FLIPR), RBL2H3-TGR12, at 1 nM (fluorescence intensity) (human TGR12 (untagged)): 41
maximum activity in the calcium increasing effect (FLIPR), RBL2H3-TGR12, at 10 nM (fluorescence intensity) (human TGR12 (untagged)): 2090
maximum activity in the calcium increasing effect (FLIPR), RBL2H3-TGR12, at 100 nM (fluorescence intensity) (human TGR12 (untagged)): 11100
maximum activity in the calcium increasing effect (FLIPR), RBL2H3-TGR12, at 1 µM (fluorescence intensity) (human TGR12 (untagged)): 12000
maximum activity in the calcium increasing effect (FLIPR), RBL2H3-TGR12, at 10 µM (fluorescence intensity) (human TGR12 (untagged)): 12300
Molecule: human PAMP12 (proadrenomedullin N-terminal 20 peptide (9-20)) (from UniProt P35318 30-41)

maximum activity in the calcium increasing effect (FLIPR), CHO-TGR12, at 0.3 nM [3]: 67 fluorescence intensity
maximum activity in the calcium increasing effect (FLIPR), CHO-TGR12, at 3 nM [3]: 54 fluorescence intensity
maximum activity in the calcium increasing effect (FLIPR), CHO-TGR12, at 30 nM [3]: 94 fluorescence intensity
maximum activity in the calcium increasing effect (FLIPR), CHO-TGR12, at 300 nM [3]: 17900 fluorescence intensity
maximum activity in the calcium increasing effect (FLIPR), CHO-TGR12, at 3000 nM [3]: 23600 fluorescence intensity
degranulation of LAD 2 (beta-hexosaminidase release, % of total) at 10 nM (human TGR12 (untagged)): 1.6%
degranulation of LAD 2 (beta-hexosaminidase release, % of total) at 30 nM (human TGR12 (untagged)): 2.8%
degranulation of LAD 2 (beta-hexosaminidase release, % of total) at 100 nM (human TGR12 (untagged)): 26.5%
degranulation of LAD 2 (beta-hexosaminidase release, % of total) at 300 nM (human TGR12 (untagged)): 52.8%
degranulation of LAD 2 (beta-hexosaminidase release, % of total) at 1 µM (human TGR12 (untagged)): 62.2%
degranulation of LAD 2 (beta-hexosaminidase release, % of total) at 3 µM (human TGR12 (untagged)): 58.9%
maximum activity in the calcium increasing effect (FLIPR), RBL2H3-TGR12, at 1 nM (human TGR12 (untagged)): -2 fluorescence intensity
maximum activity in the calcium increasing effect (FLIPR), RBL2H3-TGR12, at 10 nM (human TGR12 (untagged)): 33 fluorescence intensity
maximum activity in the calcium increasing effect (FLIPR), RBL2H3-TGR12, at 100 nM (human TGR12 (untagged)): 1570 fluorescence intensity
maximum activity in the calcium increasing effect (FLIPR), RBL2H3-TGR12, at 1 µM (human TGR12 (untagged)): 11200 fluorescence intensity
maximum activity in the calcium increasing effect (FLIPR), RBL2H3-TGR12, at 10 µM (human TGR12 (untagged)): 12800 fluorescence intensity
Molecule: DRMPCRNFFWKTFSSCK (peptide, UniProt O00230 89-105, looked up, not fully specified; ends and bridges not checked) [human cortistatin-17]
